Assay results reported in patent US9046524B1, “Method to quantify and measure excess colipase in a pancreatin active pharmaceutical ingredient” (Scientific Protein Laboratories, LLC, priority 2012, dated 2015).

Key:
Assay type in all cases: biochemical
[1] = biological target: T1, pancreatin lipase (Sus scrofa, UniProt P00591); experiment: Orlistat inhibition of lipase activity on GTB substrate; conditions: 1.0 μM Lipase:Orlistat equal molar, 5 minutes on ice; USP Lipase and pancreatin samples #1, #2, #3; 1 mM Na-TDC
T1 construct: purchased USP Rockville, Md; 1494079; host or cells: also pancreatin API samples #1, #2, #3 (pancreas extract)
T1 sequence (P00591 1-450): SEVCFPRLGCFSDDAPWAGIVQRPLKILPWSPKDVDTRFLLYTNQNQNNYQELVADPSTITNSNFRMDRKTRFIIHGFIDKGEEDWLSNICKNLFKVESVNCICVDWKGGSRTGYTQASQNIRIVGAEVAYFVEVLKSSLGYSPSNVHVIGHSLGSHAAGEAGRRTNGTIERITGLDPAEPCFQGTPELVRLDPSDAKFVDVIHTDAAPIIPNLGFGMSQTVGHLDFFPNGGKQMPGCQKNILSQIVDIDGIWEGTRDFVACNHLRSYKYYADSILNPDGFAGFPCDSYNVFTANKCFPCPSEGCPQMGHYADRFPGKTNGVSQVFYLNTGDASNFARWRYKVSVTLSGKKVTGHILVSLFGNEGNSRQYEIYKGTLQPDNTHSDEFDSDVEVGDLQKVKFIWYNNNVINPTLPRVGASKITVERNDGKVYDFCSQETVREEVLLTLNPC
Method: To check the specificity of the substrate GTB, an inhibition experiment is conducted with the specific inhibitor Orlistat (Tetrahydrolipstatin, THL, Sigma #04139). […] To check the specificity of GTB substrate, bile salt below CMC concentration (1 mM Na-TDC) is chosen to obtain maximum lipase activity.
The Orlistat is dissolved in dimethyl sulfoxide (DMSO) to obtain 1.0 mg/mL stock solution. Lipase (USP) and pancreatin samples #1, #2 and #3 are mixed with Orlistat at equal molar concentrations (1.0 μM Lipase:Orlistat) and incubated for 5 minutes on ice. The assays are performed on USP Lipase and pancreatin API samples with and without Orlistat. All the samples are titrated with 0.005 M NaOH for 5 minutes in a glass mixing chamber with 30 mL of substrate mix containing 1 mM Na-TDC at 37° C. temperature and pH 7.5.

[2] = biological target: T2, lipase (Sus scrofa, UniProt P00591); experiment: Bile salt (Na-TDC) inhibition of lipase activity against tributyrin
T2 construct: purchased USP Rockville, Md; 1494079
T2 sequence (P00591 1-450): T1 sequence (P00591 1-450)
Method: Lipase activity against tributyrin is assayed with different concentration of TDC to determine the CMC for inhibition. The minimum TDC concentration to achieve sufficient inhibition of lipase activity is determined. Five different concentrations (1, 4, 8, 12 and 16 mM) of sodium taurodeoxy-cholate (Na-TDC) are used to determine the CMC of bile salt on two concentrations of lipase (2.5 and 5.0 μg/mL). […] As shown also in FIG. 4, increasing the concentration of bile salt above the CMC results in a progressive inhibition of lipase activity (4-16 mM Na-TDC). […] The lipase inhibition with higher concentration of bile salt (above CMC) is more consistent with the lipase at 5.0 μg/mL when compared to 2.5 μg/mL lipase (FIG. 4).

[3] = biological target: T3, lipase (Sus scrofa, UniProt P00591); experiment: Reactivation of bile salt-inhibited lipase by added colipase
T3 construct: from tissue; host or cells: pancreatin API batches (pancreas extract)
T3 sequence (P00591 1-450): T1 sequence (P00591 1-450)
T3 sequence (P02703 23-112 partner): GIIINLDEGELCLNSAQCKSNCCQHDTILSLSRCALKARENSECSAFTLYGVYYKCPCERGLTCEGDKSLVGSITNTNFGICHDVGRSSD
Method: In yet another embodiment, the effect of colipase on lipase activity and determination of the optimum concentration of colipase to measure the restored lipase activity is studied. The method for colipase determination is based on the principle that lipase inactivated by bile salt is reactivated by colipase (FIG. 1). FIG. 4 supports the theory of reactivation of lipase with the addition of exogenous colipase. As such, different concentrations of bile salt (0, 4, 8, 12 and 16 mM) are tested in the presence of 5.0 μg of lipase per reaction to measure the lipase activity. To each reaction beaker, a different amount of colipase (2.5, 5.0 and 10 μg) is added to the assay mixture prior to the lipase.
However, by adding different concentration of exogenous colipase (Sigma Cat #C3028), lipase activity is restored. In FIG. 5, 2.5 μg colipase, 5.0 μg colipase, and 10.0 μg colipase bars with 4, 8, 12 and 16 mM Na-TDC represent the lipase activity due to reactivation of lipase from addition of exogenous colipase. The presence of colipase at higher concentration will inhibit lypolysis. […] Although the main function of colipase is to restore the activity of the bile salt-inhibited lipase, colipase also has been reported to affect the activity of lipase in absence of bile salts by stabilizing lipase and decreasing its rate of inactivation in the presence of substrate (see Borgstrom and Brockman, 1984). […] Results reveal the most favorable amount of colipase to recover the inhibited lipase is 2.5 μg per assay with 4 mM Na-TDC.
In still another embodiment, a separate study is performed with differing amounts of lipase (2.5, 5.0 and 10 μg per reaction) to determine the maximum recovery of lipase activity in the presence of 4 mM Na-TDC and 2.5 μg added colipase. The colipase content of the sample is determined as a difference between two titration values, the blank with lipase and the test with lipase plus added colipase (test values−blank values). The accuracy of the determination is dependent on the relative proportion between lipase and colipase.
The activity in the absence of added colipase increases with increase in lipase amount, due to presence of endogenous colipase. Further, the lipase activity increases by adding exogenous colipase.

CCCCCCCCCCC[C@@H](C[C@@H]1OC(=O)[C@H]1CCCCCC)OC(=O)[C@H](CC(C)C)NC=O [Orlistat]
inhibition of lipase activity [1]: 90%

C[C@H](CCC(=O)NCCS(=O)(=O)[O-])[C@H]1CC[C@H]2[C@@H]3CC[C@@H]4C[C@H](O)CC[C@]4(C)[C@H]3C[C@H](O)[C@]12C.O.[Na+] [Na-TDC, sodium taurodeoxycholate hydrate]
effect on lipase activity below CMC ([2]; 1 mM Na-TDC compared to 0 mM): enhancement in lipase activity | effect on lipase activity above the CMC ([2]; 4, 8, 12 & 16 mM Na-TDC, lipase 2.5 and 5.0 μg/mL): almost complete inhibition of lipase activity

B1: colipase: Colipase Standard: Sigma Colipase from porcine pancreas Cat #C3028 (protein, UniProt P02703 23-112, looked up)
Colipase: T3 sequence (P02703 23-112 partner)
restored lipase activity ([3]; 2.5 μg colipase, 4 mM Na-TDC, 10.0 μg lipase): 0.23 fold | increase in restored lipase activity ([3]; 2.5 μg colipase, 4 mM Na-TDC, 2.5 and 5.0 μg of lipase): two-fold | increase in lipase activity by addition of colipase ([3]; 2.5 μg colipase, without bile salt, 5.0 μg lipase): about 1.5 fold | restored lipase activity with 5 and 10 μg colipase, fold lower than with 2.5 μg colipase ([3]; 16 mM TDC): 4 fold
